{
  "source": "patent US10012655B2",
  "about": "“Method for quantitating total HMGB1 protein in biological samples” (INSTITUT PASTEUR, priority 2008, dated 2018)",
  "molecules": {"B1": {"name": "rh-HMGB1: recombinant human HMGB1 protein (R&D Systems) (protein, UniProt P09429 1-215, looked up)", "High mobility group protein B1": "MGKGDPKKPRGKMSSYAFFVQTCREEHKKKHPDASVNFSEFSKKCSERWKTMSAKEKGKFEDMAKADKARYEREMKTYIPPKGETKKKFKDPNAPKRPPSAFFLFCSEYRPKIKGEHPGLSIGDVAKKLGEMWNNTAADDKQPYEKKAAKLKEKYEKDIAAYRAKGKPDAAKKGVVKAEKSKKKKEEEEDEEDEEDEEEEEDEEDEDEEEDDDDE"}},
  "key": {"iDCs": {"test_system": "iDCs", "assay": "Cytokine and chemokine production by DCs (MAP/Luminex)", "type": "cell-based, human", "details": "iDCs 48 h with 1 or 10 μg/ml", "description": "FIG. 3 (a)-(e). aNK-dependent maturation of HIV-1-infected iDCs is mediated by HMGB1 and involves RAGE. (a) Left panel: iDCs were cultured for 24 h either alone or with aNK cells, in the presence of blocking anti-HMGB1 antibodies (10 μg/ml) or glycyrrhizin (10 μg/ml). The maturation status of DCs was determined by flow cytometry with CD86 and HLA-DR—specific antibodies. Right panel: same experiment, but performed with HIV-1 infected iDCs. Data represent mean±sd of at least three independent experiments, and statistical comparisons were made with the non parametric Mann-Whitney test. * p<0.05. (b) iDC (10^6 cells/ml) were cultured for 48 h with increasing concentrations (1-10 μg/ml) of rh-HMGB1. Cells were then stained with anti-CD86, -HLA-DR, -CD80, -CD83, DC-LAMP and -CD40 antibodies and analyzed by flow cytometry. (c) Influence of rh-HMGB1 on cytokine and chemokine production (determined by MAP) by DCs. iDCs (10^6 cells/ml) were incubated for 48 h in medium or in presence of rh-HMGB1 (1 or 10 μg/ml). As a positive control, iDCs were stimulated with LPS (DC0). […] (e) iDC, DC0, uninfected or HIV-1-infected iDC cocultured for 24 h with aNK cells, were incubated with rh-HMGB1 (1 μg/ml) and subsequently stained with anti-RAGE antibodies and analyzed by flow cytometry. […]"}, "R5-HIV-1Ba-L": {"test_system": "R5-HIV-1Ba-L", "assay": "HIV-1 replication in infected iDCs, p24 ELISA in culture supernatant", "type": "cell-based", "details": "1 μg/ml, 3 days", "description": "FIGS. 6 (a), (b) and (c). Exogenous rh-HMGB1 triggers HIV-1 and HIV-2 replication in iDC. (a) HIV-1-infected iDC were cultured alone or in the presence of aNK cells for 3 days. Rh-HMGB1 (1 μg/ml) was added in some cultures. HIV replication was measured by p24 quantification in culture supernatant (b) HIV1-infected iDC were cultured alone or in the presence of aNK cells for 3 days. Blocking anti-HMGB1 antibodies (10 μg/ml) or glycyrrhizin (10 μg/ml) were added at culture initiation. HIV replication was measured by p24 quantification in culture supernatant. The mean±sd of three independent experiments is shown. Statistical comparisons were made with the non parametric Mann-Whitney test. * p<0.05; (c) HIV-2-infected iDC were cultured alone or in the presence of aNK cells for 3 days. Rh-HMGB1 (1 μg/ml) was added in some cultures. HIV replication was measured by p24 quantification in culture supernatant.\nVirus stock preparation was prepared by amplification of R5-HIV-1Ba-L on MDM from healthy donors. Viral stock was then clarified by centrifugation prior to determination of HIV1 p24 concentration. iDCs were plated in 96-well culture plates at 200,000 cells/well and incubated for 3 hours at 37° C. in a 5% CO2 atmosphere with R5-HIV-1BAL at various concentrations (0.001 to 10 ng p24/ml). Cells were harvested, washed four times with media containing 10% FCS and, when indicated, rNK or aNK cells were added at a NK:DC ratio of 1:5, unless otherwise indicated. NK-DC cocultures lasted 24 h before analysis of the maturation stage of DCs and/or quantification of viral production. In some experiments (FIG. 6), HIV-1 infected iDCs were incubated alone or with aNK cells for 3 days, in the presence of rh-HMGB1 (1 μg/ml) (R&DSystems), and in some cultures in the presence of rabbit antiHMGB1 Abs (10 μg/ml) (Abcam, Cambridge, UK) or Glycyrrhizin (10 μg/ml).\nThe concentration of HIV-1 in the supernatant of infected cell cultures was determined by measuring the amount of p24 protein by ELISA (Ingen, Belgium). DNA from cells was extracted using the GIAamp DNA Blood Mini Kit (Qiagen, Basel, Switzerland) and quantified HIV-1 proviral load by RT-PCR as described previously54. The frequency of HIV-1-infected cells was determined by flow cytometry to detect intracellular p24 molecule. Cells were surface stained with antibodies specific for CD40 (BD Biosciences, San Jose, Calif.) to target DC and intracellular stained with p24-specific antibodies (Coulter). Stained cells were fixed in 1% PFA, immediately acquired on a FACScalibur (Becton Dickinson) and analyzed with FlowJo software. In some experiments infected DCs were imaged, after immunofluorescence, by laser scanning confocal microscopy."}},
  "data": [
    {"molecule": "B1", "values": [
      {"measurement": "release of the chemokines MCP1, MIP-1α, MIP-1β and IL-8", "setting": "iDCs", "result": "increased release"},
      {"measurement": "p24 production in culture supernatants", "setting": "R5-HIV-1Ba-L; HIV-1-infected iDC cocultured with aNK cells", "result": "significant stimulatory effect on p24 production"},
      {"measurement": "production of p24 in culture supernatants", "setting": "R5-HIV-1Ba-L; HIV-1-infected iDC cultured alone", "result": "enhancing dramatically the production of p24"}
    ]}
  ]
}
